The source of these data is the RNAGym collection of RNA variant scans (doi:10.7554/elife.80360).

B1: Hairpin Ribozyme (parent)
chain: GUCCUCUUUCACGUGCGCGUGAAAGAGAGAAGUGAACCAGAGAAACACACGUUGUGGUAUAUUACCUGGUA

In this data set the parent is B1. The data set can be described thus: self-cleavage, relative activity (ratio to wild type); higher = more cleavage; co-transcriptional.
Take GUACUCUUUCACGUGCGCGUGAAAGAGAGAAGUGAACCAGAGCAACACACGUUGUGGUAUAUUACCUGGUA: the self-cleavage was determined as 0.0772. Regarding GUACUCUUUCACGUGCGCGUGAAAGAGAGAAGUGAACCAGAGUAACACACGUUGUGGUAUAUUACCUGGUA, the self-cleavage came out at 0.179. GGCCUCUUUCACGUGCGCGUGAAAGAGAGAAGUGAACCAGAGAAACACACGUUGUGGUAUAUUAGCUGGUA: the self-cleavage amounted to 0.0852. With GGCCUCUUUCACGUACGCGUGAAAGAGAGAAGUGAACCAGAGAAACACACGUUGUGGUAUAUUACCUGGUA, the self-cleavage amounted to 0.55. As to GGCCUCUUUCACGUGCGCGUGAAAGAGAGAAGUGAACCAGAGAAACACACGUUGUGGUAUAUUACUUGGUA, the self-cleavage came to 0.163. On to GGCCUCUUUCACGUGCGCGUGAAAGAGAGAAGUGAACCAGAGAAACACACGUUGUGGUAUAUUACCCGGUA, for which the self-cleavage came to 0.102. Turning to GGCCUCUUUCACGUGCACGUGAAAGAGAGAAGUGAACCAGAGAAACACACGUUGUGGUAUAUUACCUGGUA, the self-cleavage is 0.529. With GGCCUCUUUCACGUGCUCGUGAAAGAGAGAAGUGAACCAGAGAAACACACGUUGUGGUAUAUUACCUGGUA, the self-cleavage is 0.327. For the variant GGCCUCUUUCACGUGCGCGUGAAAGAGAGAAGUGAACCAGAGAAAUACACGUUGUGGUAUAUUACCUGGUA, the self-cleavage was 0.11. For GUACUCUUUCACGUGCGCGUGAAUGAGAGAAGUGAACCAGAGAAACACACGUUGUGGUAUAUUACCUGGUA, the self-cleavage was determined as 0.703.

In the case of GUACUCUUUCACGUGCGCGUGAAAGAGAGAGGUGAACCAGAGAAACACACGUUGUGGUAUAUUACCUGGUA, the self-cleavage turned out to be 0.425. With GUACUCUUUCACGUGCGCGUGAAAGAGAGAAGUGAACCAGAGAAACACACGUUGUGGUCUAUUACCUGGUA the figure was 0.121; with GUACUCUUUCACGUGCGCGUGAAAGAGAGAAGUGAACCAGAGAAACACACGUUGUGGUGUAUUACCUGGUA, 0.0686.

For GGCCUCUUUCACGUGCGCGUGAAAGAGAGAAGUGAACCAGAGAAACACACGUUGUGGUAUACUACCUGGUA, the self-cleavage came to 0.0918. As to GGCCUCUUUCACGUGCGCGUGAAAGAGAGAAGUGAACCAGAGAAACACACGUUGUGGUAUAGUACCUGGUA, the self-cleavage was 0.11.

In the case of GGCCUCUUUCACGUGCGCGUGAAAGAGAGAAGUGAACCAGAGAAACACACGUUGUGGUAUAUUACCUGUUA, the self-cleavage was 0.116. As for GGCCUCUUUCACGUGCGCGUGAAAGAGAGAAGUGAACCAGAGAAACACACGUUGUGGUAUAUUACCUGAUA, the self-cleavage was 0.109.

In the case of GGCCUCUUUCACGUGCGCGUUAAAGAGAGAAGUGAACCAGAGAAACACACGUUGUGGUAUAUUACCUGGUA, the self-cleavage worked out at 0.236. As to GGCCUCUUUCACGUGCGCGUCAAAGAGAGAAGUGAACCAGAGAAACACACGUUGUGGUAUAUUACCUGGUA, the self-cleavage stood at 0.364. Consider GUACUCUUUCACGUGCGCGUGAAAGAGAGAAGUGGACCAGAGAAACACACGUUGUGGUAUAUUACCUGGUA, for which the self-cleavage worked out at 0.897.

As for GUACUCUUUCACGUGCGCGUGAAAGAGAGAAGUGUACCAGAGAAACACACGUUGUGGUAUAUUACCUGGUA, the self-cleavage came out at 0.479. Turning to GUACUCUUUCACGUGCGCGUGAAAGAGAGCAGUGAACCAGAGAAACACACGUUGUGGUAUAUUACCUGGUA, the self-cleavage was determined as 0.14. For GUACUCUUUCACGUGCGCGUGAAAGAGAGGAGUGAACCAGAGAAACACACGUUGUGGUAUAUUACCUGGUA, the self-cleavage stood at 0.146. With GGCCUCUUUCACGUGCGCGUGAAAGAGAGAAGUAAACCAGAGAAACACACGUUGUGGUAUAUUACCUGGUA, the self-cleavage is 0.37. On to GGCCUCUUUCACGUGCGCGUGAAAGAGAGAAGUGAACCAGACAAACACACGUUGUGGUAUAUUACCUGGUA, for which the self-cleavage was 0.252. With GUACUCUUUCACGUGCGCGUGAAAGAGGGAAGUGAACCAGAGAAACACACGUUGUGGUAUAUUACCUGGUA the figure was 0.453.

For GUACUCUUUCACGUGCGCGUGAAAGAGCGAAGUGAACCAGAGAAACACACGUUGUGGUAUAUUACCUGGUA, the self-cleavage came to 0.648. Regarding GGCCUCUUUCACGUGCGCGUGAAAGAGAGAAGUGAACCAGAGAAACACACGUUCUGGUAUAUUACCUGGUA, the self-cleavage came out at 0.155. With GGCCUCUUUCACGUGCGCGUGAAACAGAGAAGUGAACCAGAGAAACACACGUUGUGGUAUAUUACCUGGUA the figure was 0.137. In the case of GUACUCUUUCACGUGCGCGUGAAAGAGAGAAGUGAACCAGAGAAACACCCGUUGUGGUAUAUUACCUGGUA, the self-cleavage came out at 0.164.

As to GGCCUCUUUCACGUGCGCGUGAAAGAGACAAGUGAACCAGAGAAACACACGUUGUGGUAUAUUACCUGGUA, the self-cleavage was 0.122. As for GUACUCUUUCACGUGCGCGUGAAAGAGAGAAGUGAACCAGAGAAACACACGUUGUGGUAUAUUGCCUGGUA, the self-cleavage is 0.54. Consider GUACUCUUUCACGUGCGCGUGAAAGAGAGAAGUGAACCAGAGAAACACACGUUGUGGUAUAUUCCCUGGUA, for which the self-cleavage came to 0.197. On to GGCCUCUUACACGUGCGCGUGAAAGAGAGAAGUGAACCAGAGAAACACACGUUGUGGUAUAUUACCUGGUA, for which the self-cleavage came to 0.242. As to GGCCUCUUGCACGUGCGCGUGAAAGAGAGAAGUGAACCAGAGAAACACACGUUGUGGUAUAUUACCUGGUA, the self-cleavage amounted to 0.206. Turning to GGCCUCUUUCACGUGCGCGUGAAAGAGAGAAGUGAACCAGAGAAACACACGUUGUGGUAAAUUACCUGGUA, the self-cleavage was 0.402.

Regarding GGCCUCUCUCACGUGCGCGUGAAAGAGAGAAGUGAACCAGAGAAACACACGUUGUGGUAUAUUACCUGGUA, the self-cleavage stood at 0.255.

As for GUACUCUUUCACGUGCGCGUGAAAGAGAGAAGUGAACCAGAGAAACACACGUUGUGGUAUAUUACCUGGUC, the self-cleavage came out at 1.11.

Take GGCCUCUUUCACGUGCGCGUGAAAGAGAGAAGUGAACCAGAGAAACACACGUUGUCGUAUAUUACCUGGUA: the self-cleavage worked out at 0.0624. With GGCCUCUUUCACGUGCGCGUGAAAGAGAGAAGUGAACCAGAGAAACACACGUUGUUGUAUAUUACCUGGUA the figure was 0.0924; with GGCCUCUUUCACGUGCGCGUGAAAGAGAGAAGUGAAGCAGAGAAACACACGUUGUGGUAUAUUACCUGGUA, 0.0975. As to GGCCUCUUUCACGUGCGCGUGAAAGAGAGAAGUGAACCAGAGAAACACACGUUGUGUUAUAUUACCUGGUA, the self-cleavage was 0.209. For the variant GUACUCUUUCACGUGCGCGUGAAAGAGAGAAGUGAACCAGAGAAACGCACGUUGUGGUAUAUUACCUGGUA, the self-cleavage came to 0.191. For GGCCUCUUUCACGUGCGCGUGAAAGAGAGAAGUGAACCAGAGAAACAAACGUUGUGGUAUAUUACCUGGUA, the self-cleavage amounted to 0.213. GGCCUCUUUCACGUGCGCGUGAAAGAGAGAAGUGAACCAGAGAAACAGACGUUGUGGUAUAUUACCUGGUA: the self-cleavage came out at 0.116. In the case of GUACUCUUUCACGUGCGCGUGAAAGAGAGAAGUGACCCAGAGAAACACACGUUGUGGUAUAUUACCUGGUA, the self-cleavage turned out to be 0.497. With GUACUCUUUCACGUGCGCGUGAAAGAGAGAAGUGAACCAGAGAAACACACGUUGUGGUAUUUUACCUGGUA the figure was 0.199.

Turning to GGCCUCUUUCACGUGCGCGUGAAAGAGAGAAGUGAACCAGAGAAACACACGUUGUGGAAUAUUACCUGGUA, the self-cleavage was 0.263. Consider GGCCUCUUUCACGUGCGCGUGAAAGAGAGAAGUGAACCAGAGAAACACACGUUGUGGGAUAUUACCUGGUA, for which the self-cleavage was determined as 0.255. With GUACUCUUUCACGUGCGCGUGAAAGAGAGAAGUGAACCAGAGAAACACACGUUGUGGUAUAUUACCUGGUA the figure was 0.714. With GGCCUCUUUCACGUGCGCGUGAAAGAGAGAAGUGAACGAGAGAAACACACGUUGUGGUAUAUUACCUGGUA the figure was 0.172; with GGCCUCUUUCACGUGCGCGUGAAAGAGAGAAGUGAACAAGAGAAACACACGUUGUGGUAUAUUACCUGGUA, 0.143; with GGCCUCUUUCACGUGCGCGUGAAAGAGAGAAGUGAACCAGAGAAACACACCUUGUGGUAUAUUACCUGGUA, 0.359. For GGCCUCUUUCACGUGCGCAUGAAAGAGAGAAGUGAACCAGAGAAACACACGUUGUGGUAUAUUACCUGGUA, the self-cleavage is 0.311. Consider GGCCUCUUUCACGUGCGGGUGAAAGAGAGAAGUGAACCAGAGAAACACACGUUGUGGUAUAUUACCUGGUA, for which the self-cleavage amounted to 0.373. GGCCUCUUUCACGUGCGAGUGAAAGAGAGAAGUGAACCAGAGAAACACACGUUGUGGUAUAUUACCUGGUA: the self-cleavage was found to be 0.379.

Take GUACUCUUUCACGUGCGCGUGAAAGAGAGAAGUGAACCAGUGAAACACACGUUGUGGUAUAUUACCUGGUA: the self-cleavage turned out to be 1.25. For GUACUCUUUCACGUGCGCGUGAAAGAGAGAAGUGAACCAGCGAAACACACGUUGUGGUAUAUUACCUGGUA, the self-cleavage was determined as 1.07.

Consider GUACUCUUUCACGUGCGCGUGAAAGAGAGAAGUGAACCCGAGAAACACACGUUGUGGUAUAUUACCUGGUA, for which the self-cleavage came out at 0.328. Turning to GUACUCUUUCACGUGCGCGUGAAAGAGAGAAGUGAACCUGAGAAACACACGUUGUGGUAUAUUACCUGGUA, the self-cleavage is 0.252. For the variant GUACUCUUUCACGUGCGCGUGAAAGAGAGAAGUGAACCGGAGAAACACACGUUGUGGUAUAUUACCUGGUA, the self-cleavage was determined as 0.192. For GUACUCUUUCACGUGCGCGUGAAAGCGAGAAGUGAACCAGAGAAACACACGUUGUGGUAUAUUACCUGGUA, the self-cleavage was 0.402. With GUACUCUUUCACGUGCGCGUGAAAGGGAGAAGUGAACCAGAGAAACACACGUUGUGGUAUAUUACCUGGUA the figure was 0.736; with GGCCUCUUUCACGUGCGCGAGAAAGAGAGAAGUGAACCAGAGAAACACACGUUGUGGUAUAUUACCUGGUA, 0.225.

Regarding GGCCUCUUUCACGUGCGCGCGAAAGAGAGAAGUGAACCAGAGAAACACACGUUGUGGUAUAUUACCUGGUA, the self-cleavage was found to be 0.385. With GGCCUCUUUCACGUGCGCGGGAAAGAGAGAAGUGAACCAGAGAAACACACGUUGUGGUAUAUUACCUGGUA, the self-cleavage was 0.186. GGCCUCUUUCACCUGCGCGUGAAAGAGAGAAGUGAACCAGAGAAACACACGUUGUGGUAUAUUACCUGGUA: the self-cleavage stood at 0.29. On to GGCCUCUUUCACUUGCGCGUGAAAGAGAGAAGUGAACCAGAGAAACACACGUUGUGGUAUAUUACCUGGUA, for which the self-cleavage came to 0.246.

On to GUACUCUUUCACGUGCGCGUGAAAGAGAGAAGUGAACCAGAGAGACACACGUUGUGGUAUAUUACCUGGUA, for which the self-cleavage stood at 0.126.

For GUACUCUUUCACGUGCGCGUGAAAGAGAGAAGUGAACCAGAGAUACACACGUUGUGGUAUAUUACCUGGUA, the self-cleavage stood at 0.148. For the variant GUACUCUUUCACGUGCGCGUGAAAGAGAGAAGUGAACCAGAGAAGCACACGUUGUGGUAUAUUACCUGGUA, the self-cleavage is 0.197. GUACUCUUUCACGUGCGCGUGAAAGAGAGAAGUGAACCAGAGAAUCACACGUUGUGGUAUAUUACCUGGUA: the self-cleavage was 0.164. GUACUCUUUCACGUGCGCGUGAAAGAGAGAAGUGAACCAGAGAACCACACGUUGUGGUAUAUUACCUGGUA: the self-cleavage is 0.157. As to GUACUCUUUCACGUGCGCGUGCAAGAGAGAAGUGAACCAGAGAAACACACGUUGUGGUAUAUUACCUGGUA, the self-cleavage is 0.593. With GGCCUCUUUCACGAGCGCGUGAAAGAGAGAAGUGAACCAGAGAAACACACGUUGUGGUAUAUUACCUGGUA the figure was 0.216; with GGCCUCUUUCACGUGCGCGUGAAAGAGAGAAGUGAACCAGAGAAACACACGUAGUGGUAUAUUACCUGGUA, 0.195.
